# Measured values: patent US20190300605A1 (Pfizer, published 2019)
# T1: recombinant mouse MAdCAM (mouse, UniProt Q61826 22-365)
# T1 sequence (looked up): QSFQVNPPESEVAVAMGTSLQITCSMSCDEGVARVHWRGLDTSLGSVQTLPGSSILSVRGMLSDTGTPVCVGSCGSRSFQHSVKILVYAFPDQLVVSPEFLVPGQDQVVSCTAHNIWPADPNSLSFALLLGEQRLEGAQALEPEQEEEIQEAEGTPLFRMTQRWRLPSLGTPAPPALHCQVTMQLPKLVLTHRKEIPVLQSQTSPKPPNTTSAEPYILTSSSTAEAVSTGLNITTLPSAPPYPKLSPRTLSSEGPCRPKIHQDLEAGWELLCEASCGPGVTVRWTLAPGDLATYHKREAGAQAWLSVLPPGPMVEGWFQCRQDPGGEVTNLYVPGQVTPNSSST
# T2: human MAdCAM (full length) (human, UniProt Q13477 19-382)
# T2 sequence (looked up): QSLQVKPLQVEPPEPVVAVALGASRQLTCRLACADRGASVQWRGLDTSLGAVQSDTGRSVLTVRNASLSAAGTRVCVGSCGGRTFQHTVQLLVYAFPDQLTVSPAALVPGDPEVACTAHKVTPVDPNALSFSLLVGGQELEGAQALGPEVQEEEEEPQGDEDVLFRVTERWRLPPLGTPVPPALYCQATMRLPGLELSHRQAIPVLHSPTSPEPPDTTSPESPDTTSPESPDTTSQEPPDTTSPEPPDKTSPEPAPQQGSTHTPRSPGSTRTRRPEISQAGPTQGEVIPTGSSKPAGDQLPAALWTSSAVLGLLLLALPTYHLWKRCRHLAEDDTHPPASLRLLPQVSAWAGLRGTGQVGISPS
# T3: chimeric cynomolgus/human MAdCAM (cynomolgus; human, UniProt Q13477 226-382, limits assumed)
# T3 sequence: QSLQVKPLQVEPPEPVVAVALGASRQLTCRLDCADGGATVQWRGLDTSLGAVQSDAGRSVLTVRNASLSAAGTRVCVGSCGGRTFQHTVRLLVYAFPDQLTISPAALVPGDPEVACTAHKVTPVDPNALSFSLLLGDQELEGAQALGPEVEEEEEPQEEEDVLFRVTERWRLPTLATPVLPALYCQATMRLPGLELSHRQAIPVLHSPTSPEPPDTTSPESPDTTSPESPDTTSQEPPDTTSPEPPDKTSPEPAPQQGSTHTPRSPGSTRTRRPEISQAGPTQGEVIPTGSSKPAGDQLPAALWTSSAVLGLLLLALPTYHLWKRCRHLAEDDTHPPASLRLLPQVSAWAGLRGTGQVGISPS
# B1: anti-MAdCAM monoclonal antibody 6.34.2 (antibody, human IgG4, kappa, V domains shown)
# VH: QVQLVESGGGVVQPGRSLRLSCAASGFTFSSYGMHWVRQAPGKGLEWVAVISNDGNNKYYADSVKGRFTISRDNSKNTLYLQMNSLSAEDTAVYYCARDSTAITYYYYGMDVWGQGTTVTVSS
# VL: DIQMTQSPSSLSASVGDRVTITCRASQNISSYLNWFQQKPGKAPKLLIYAASGLKRGVPSRFSGSGSGTDFTLTIRTLQPDDFATYSCHQSYSLPFTFGPGTKVDIKR
# notes: human IgG4 kappa from hybridoma 6.34.2
# B2: anti-MAdCAM monoclonal antibody 6.22.2 (antibody, human IgG4, kappa, V domains shown)
# VH: QVQLVESGGGVVQPGRSLRLSCAASGHTFSSDGMHWVRQAPGKGLEWVAIIWYDGSNKYYADSVKGRFTISRDNSKNTLYLQMNSLRAEDTAVYYCARDPGYYYGMDVWGQGTTVTVSS
# VL: EIVLTQSPDFQSVTPKEKVTITCRASQRIGSSLHWYQQKPDQSPKLLIKYASQSFSGVPSRFSGSGSGTNFTLTINGLEAEDAATYYCHQSGRLPLTFGGGTKVEIKR
# notes: human IgG4 kappa from hybridoma 6.22.2
# B3: anti-MAdCAM monoclonal antibody 7.26.4 (antibody, human IgG2, kappa, V domains shown)
# VH: QVQLVQSGAEVKKPGASVKVSCEASGYTFTSYGIDWVRQAPGQGLEWMGWISVYSGNTNYAQKLQGRVTMSTDTSTSTAYMELRSLRSDDTAVYYCAREGSSSSGDYYYGMDVWGQGTTVTVSS
# VL: DIVMTQTPLSLSVTPGQPASISCKSNQSLLYSDGKTYLFWYLQKPGQPPQLLIYEVSNRFSGVPDRFSGSGSGTDFTLKISRVEAEDVGVYYCMQSIQLPWTFGQGTKVEIKR
# notes: human IgG2 kappa from hybridoma 7.26.4
# B4: anti-MAdCAM monoclonal antibody 7.20.5 (antibody, human IgG2, kappa, V domains shown)
# VH: QVQLQESGPGLVKPSETLSLTCTVSGSSISSYHWNWIRQPAGKGLEWIGRIYTSGSTNYNPSLKSRVTMSLDTSKNQFSLKLSSVTAADTAVYYCAREGVRYYYASGSYYYGLDVWGQGTTVTVSS
# VL: not shown
# notes: human IgG2 kappa from hybridoma 7.20.5
# B5: anti-MAdCAM monoclonal antibody 6.67.1 (antibody, human IgG4, kappa, V domains shown)
# VH: QVQLQESGPGLVKPSETLSLTCTVSGDSISSNYWSWIRQPAGKGLEWIGRIYTSGGTNSNPSLRGRVTILADTSKNQFSLKLSSVTAADTAVYYCARDRITIIRGLIPSFFDYWGQGTLVTVSS
# VL: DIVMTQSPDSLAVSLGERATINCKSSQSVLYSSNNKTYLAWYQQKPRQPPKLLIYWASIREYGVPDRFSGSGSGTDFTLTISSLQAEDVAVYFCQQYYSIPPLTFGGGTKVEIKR
# notes: human IgG4 kappa from hybridoma 6.67.1
# Target: T1, recombinant mouse MAdCAM
# Assay: ELISA
row,binding result,Binder
1,no binding,B1
2,no binding,B2
3,no binding,B3
4,no binding,B4
5,no binding,B5

# Target: MAdCAM-IgG1 Fc fusion protein (human)
# Assay: cell-based or functional assay
row,"Mean IC50, JY cell adhesion to MAdCAM IgG1 Fc fusion",Binder
1,0.013 µg/mL,B1
2,0.018 µg/mL,B2
3,0.021 µg/mL,B3
4,0.025 µg/mL,B4
5,0.013 µg/mL,B5

# Target: T2, human MAdCAM (full length)
# Assay: cell-based or functional assay
row,"Mean IC50, JY cell adhesion, MAdCAM FlpIn CHO Assay",Binder
1,0.285 µg/mL,B1
2,0.573 µg/mL,B2
3,0.574 µg/mL,B3
4,0.387 µg/mL,B4
5,0.298 µg/mL,B5

# Target: T3, chimeric cynomolgus/human MAdCAM
# Assay: cell-based or functional assay
row,"Functional IC50, cynomolgus/human MAdCAM-CHO/JY adhesion assay",Binder
1,0.47 µg/mL,B1
2,0.83 µg/mL,B2
3,0.96 µg/mL,B3
4,0.62 µg/mL,B4
5,0.75 µg/mL,B5

# Target: MAdCAM-IgG1 Fc fusion protein (human)
# Assay: cell-based or functional assay
# Remark: another data set of the same source
row,MAdCAM IgG1 Fc fusion Assay Mean IC50 (Parent),Binder
1,0.013 µg/mL,B1
2,0.018 µg/mL,B2
3,0.021 µg/mL,B3
4,0.013 µg/mL,B5

# Target: T4, MAdCAM-IgG1 Fc fusion protein (human)
# T4 construct: Made in CHO-DHFR cells; also called MAdCAM-IgFc
# Assay: SPR BIAcore protocol 1: mAb captured, MAdCAM-IgG1 Fc injected
# Description: To perform kinetic analyses, a high density mouse anti-human (IgG₂ and IgG₄) antibody surface over a CMS BIAcore sensor chip was prepared using routine amine coupling. Hybridoma supernatants were diluted 10, 5, 2-fold in HBS-P (10 mM HEPES pH 7.4, 150 mM NaCl, 0.005% Surfactant P20) running buffer containing 100 μg/mL BSA and 10 mg/mL carboxymethyldextran or used neat. Each mAb was captured onto a separate surface using a […] contact time and a 5 mM wash for stabilization of the mAb baseline. MAdCAM-IgG₁ Fc (141 nM) fusion protein was then injected at over all surfaces for one minute, followed by a 3 mM dissociation. The data were normalized for the amount of antibody captured on each surface and evaluated with global fit Langmuir 1:1, using baseline drift models available on the BIAevaluation software provided by BIAcore.
Kd,koff,kon,Binder
0.0158 nM,1.9e-05 s⁻¹,1.2e+06 M⁻¹ s⁻¹,B1
0.0093 nM,1.4e-05 s⁻¹,1.5e+06 M⁻¹ s⁻¹,B2
0.271 nM,0.00026 s⁻¹,960000 M⁻¹ s⁻¹,B3
0.0422 nM,1.9e-05 s⁻¹,450000 M⁻¹ s⁻¹,B4
≤ 0.017 nM,≤ 1e-05 s⁻¹,590000 M⁻¹ s⁻¹,B5

# Target: T4, MAdCAM-IgG1 Fc fusion protein
# Assay: SPR BIAcore protocol 2: mAb amine-coupled, MAdCAM-IgG1 Fc injected
# Description: Affinity-purified mAb were immobilized onto the dextran layer of a CMS biosensor chip using amine coupling. […] Samples of MAdCAM-IgG₁ Fc fusion protein in running buffer were prepared at concentrations ranging from 0.2-55 nM (a 0 nM solution comprising running buffer alone was included as a zero reference). Samples were randomized and injected in duplicate for 3 mM each across 4 flow cells using HBS-EP (10 mM HEPES pH 7.4, 150 mM NaCl, 3 mM EDTA, 0.005% Surfactant P20) as running buffer. A flow rate of 100 μL/min was used to minimize mass transport limitations. Dissociation of MAdCAM-IgG₁ Fc fusion protein was monitored for 180 mins, the surface regenerated by a 6 sec injection of 25 mM H₃PO₄ (50 μL/min), or 10 mM (6.22.2), 20 mM (6.67.1, 6.73.2, 6.77.1) to 25 mM (6.34.2) and 45 mM NaOH (6.14.2) and the data analysed using the BIAevaluation (v3.1) software package.
Kd,koff,kon,Binder
< 0.015 nM,< 5e-06 s⁻¹,330000 M⁻¹ s⁻¹,B1
0.0038 nM,8.7e-07 s⁻¹,230000 M⁻¹ s⁻¹,B2
0.08 nM,1.2e-05 s⁻¹,150000 M⁻¹ s⁻¹,B3
0.075 nM,1.2e-05 s⁻¹,160000 M⁻¹ s⁻¹,B4
< 0.02 nM,< 5e-06 s⁻¹,240000 M⁻¹ s⁻¹,B5
